{"source": "patent US20240368301A1", "about": "(HANGZHOU JIUYUAN GENE ENGINEERING, published 2024)", "binders": {"B1": {"name": "H7L4-G1 (antibody, human IgG1, kappa)", "heavy": "not shown", "light": "DIVLTQSPASLAVSPGQRATITCRASESVDSYGNSFMHWYQQKPGQPPKPLIYLASNLESGVPARFSGSGSGTDFTLTINPVEANDAANYYCQQNNEYPWTFGGGTKVEIKRTVAAPSVFIFPPSDEQLKSGTASVVCLLNNFYPREAKVQWKVDNALQSGNSQESVTEQDSKDSTYSLSSTLTLSKADYEKHKVYACEVTHQGLSSPVTKSFNRGEC", "notes": "Humanized antibody with wild type human IgG1 and kappa; also called H7L4-G1w"}, "B2": {"name": "H7L4-G1lala (antibody, human IgG1, kappa, L234A L235A)", "heavy": "not shown", "light": "B1 light", "notes": "also called humanized antibody H7L4"}, "B3": {"name": "BI 765063 (antibody, V domains shown)", "VH": "EVQLVQSGAEVKKPGESLRISCKASGYSFTSYWVHWVRQMPGKGLEWMGNIDPSDSDTHYSPSFQGHVTLSVDKSISTAYLQLSSLKASDTAMYYCVRGGTGTLAYFAYWGQGTLVTVSS", "VL": "DVVMTQSPLSLPVTLGQPASISCRSSQSLVHSYGNTYLYWFQQRPGQSPRLLIYRVSNRFSGVPDRFSGSGSGTDFTLKISRVEAEDVGVYYCFQGTHVPYTFGGGTKVEIKR"}, "B4": {"name": "Z6 (antibody, IgG1, V domains shown)", "VH": "QVQLQESGPGLVKPSQTLSLTCTVSGFSLTGYGVNWIRQPPGKGLEWIGIIWGDGSTDYNSALKSRVTISKDTSKNQVFLKLSSVTAADTAVYYCARAGKMDYWGQGTTVTVSS", "VL": "DIVLTQSPASLAVSPGQRATITCRASESVDSYGNSFMHWYQQKPGQPPKPLIYLASNLESGVPARFSGSGSRTDFTLTINPVEANDAANYYCQQNNEYPWTFGGGTKVEIK", "notes": "also called humanized variant Z6"}, "B5": {"name": "Z3 (antibody, IgG1, V domains shown)", "VH": "B4 VH with K71V", "VL": "B4 VL", "notes": "also called humanized variant Z3"}, "B6": {"name": "Z9 (antibody, IgG1, V domains shown)", "VH": "B4 VH with A88D, V92R", "VL": "B4 VL", "notes": "also called humanized variant Z9"}, "B7": {"name": "Z1 (antibody, IgG1, V domains shown)", "VH": "B4 VH with K71V", "VL": "B4 VL with R72G", "notes": "also called humanized variant Z1"}, "B8": {"name": "Z4 (antibody, IgG1, V domains shown)", "VH": "B4 VH", "VL": "B4 VL with R72G", "notes": "also called humanized variant Z4"}, "B9": {"name": "Z8 (antibody, IgG1, V domains shown)", "VH": "B4 VH with A88D, V92R", "VL": "B4 VL with P50L", "notes": "also called humanized variant Z8"}, "B10": {"name": "Z7 (antibody, IgG1, V domains shown)", "VH": "B4 VH with A88D, V92R", "VL": "B4 VL with R72G", "notes": "also called humanized variant Z7"}, "B11": {"name": "Z5 (antibody, IgG1, V domains shown)", "VH": "B4 VH", "VL": "B4 VL with P50L", "notes": "also called humanized variant Z5"}}, "note": "Substitutions are numbered along the chain they refer to.", "data": [{"target": "T1, SIRPα V1-his (ACRO, Cat #SIA-H5225) (human, UniProt P78324 31-370)", "T1 construct": "not shown: His tag", "test": "BLI (ForteBio Octet RED 96): SIRPα V1-his on Ni-NTA biosensor, antibody in a 1:2 series of 7 concentrations (row SIRPα-V1)", "experimental": "5 μg/mL SIRPα V1-his and SIRPα V2-his was loaded to a Ni-NTA biosensor for 600 s, respectively. […] The binding time was 200 s and the dissociation time was 600 s. The data were fitted to calculate the affinity.", "units": {"Kd": "pM", "koff": "s⁻¹"}, "values": [{"binder": "B1", "Kd": "< 1", "koff": "< 1e-07"}, {"binder": "B2", "Kd": "< 1", "koff": "< 1e-07"}, {"binder": "B3", "Kd": "< 1", "koff": "< 1e-07"}]}, {"target": "T1, SIRPα V1-his (ACRO, Cat #SIA-H5225)", "test": "competition ELISA: coated SIRPα-V1-his, antibody titrated against biotin-CD47, streptavidin-HRP (panel SIRPα-V1-CD47)", "experimental": "100 μL of 1 μg/mL of recombinant SIRPα-V1-his and SIRPα-V2-his were coated overnight at 4° C. in Maxisorp ELISA 96-well plates. […] After washing, each well was added with 0.2 μg Streptavidin-HRP, substrate TMB, and read by an enzyme marker.", "units": {"IC50 (read off the curve)": "pM"}, "values": [{"binder": "B1", "IC50 (read off the curve)": "~3000"}, {"binder": "B2", "IC50 (read off the curve)": "~3000"}, {"binder": "B3", "IC50 (read off the curve)": "~4000"}]}, {"target": "SIRPα-V2 on CHOZN-SIRPα-V2 cells (Homo sapiens (Human), UniProt P78324 31-504)", "test": "competition FACS: CHOZN-SIRPα-V2 cells, antibody titrated against CD47-FITC, % of blocking (panel SIRPα-V2-CD47)", "experimental": "(§1) After washing, cells were analyzed by utilizing FlowJo V10 and GraphPad Prism6 software.", "units": {"IC50 (read off the curve)": "pM"}, "values": [{"binder": "B1", "IC50 (read off the curve)": "~100"}, {"binder": "B2", "IC50 (read off the curve)": "~200"}]}, {"target": "T2, SIRPα-V8 on stably transfected cells (Homo sapiens (Human), UniProt P78324 31-504)", "T2 construct": "also called CHOZN-SIRPα-V8; 293T-SIRPα-V8", "test": "FACS titration on 293T-SIRPα-V8 cells, goat anti-hIgG-AF488 (panel SIRPα-V8)", "experimental": "(§2) After washing, cells were stained by 0.2 μg of goat anti-hIgG-AF488 at 4° C. for 30 min, resuspended in […] of DPBS/1% FBS, and analyzed by FlowJo V10 and GraphPad Prism6 software.", "units": {"EC50 (read off the curve)": "pM"}, "values": [{"binder": "B1", "EC50 (read off the curve)": "~800"}, {"binder": "B2", "EC50 (read off the curve)": "~600"}]}, {"target": "T3, cynomolgus macaques SIRPα-his (ACRO, Cat #SIA-C52H7) (cynomolgus macaque, UniProt A0A2K5VYQ9 31-369)", "T3 construct": "also called Monkey SIRPα; cynomolgus macaque SIRPα", "T3 sequence": "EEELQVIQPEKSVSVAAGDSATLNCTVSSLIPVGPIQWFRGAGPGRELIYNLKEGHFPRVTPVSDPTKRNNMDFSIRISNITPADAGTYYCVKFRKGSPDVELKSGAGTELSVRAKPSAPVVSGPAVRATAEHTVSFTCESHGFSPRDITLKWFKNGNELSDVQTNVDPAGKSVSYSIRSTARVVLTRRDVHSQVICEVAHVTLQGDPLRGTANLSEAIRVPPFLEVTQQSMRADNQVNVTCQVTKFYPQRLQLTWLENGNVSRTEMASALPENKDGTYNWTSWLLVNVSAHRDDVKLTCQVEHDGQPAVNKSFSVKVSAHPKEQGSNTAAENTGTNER", "test": "ELISA: coated cynomolgus macaques SIRPα-his, antibody titrated, goat anti-hIgG Fc HRP (left panel)", "experimental": "100 μL of 1 μg/mL of cynomolgus macaques SIRPα-his were coated overnight at 4° C. in Maxisorp ELISA 96-well plates. […] After washing, each well was incubated with 100 μL of 1:5000-fold diluted goat anti-hIgG Fc HRP for 1 h at 37° C. and then substrate TMB, and read by an enzyme marker.", "units": {"EC50 (read off the curve)": "pM"}, "values": [{"binder": "B1", "EC50 (read off the curve)": "~40"}, {"binder": "B2", "EC50 (read off the curve)": "~40"}]}, {"target": "T2, SIRPα-V8 on stably transfected cells", "test": "FACS titration on CHOZN-SIRPα-V8 cells, goat anti-hIgG-AF488 (panel SIRPα-V8)", "experimental": "(§3) 2×10⁵ per well of stable transfer construct cell lines 293T-SIRPα-V1 (SEQ ID NO: 2), CHOZN-SIRPα-V2 (SEQ ID NO: 38), and CHOZN-SIRPα-V8 (SEQ ID NO: 39) in logarithmic phase were dispended in 96-well U-shaped culture plates, […] After washing, the cells were incubated with 0.2 μg of goat anti-hIgG-AF488 for 30 min at 4° C., then resuspended in 50 μL of DPBS/1% FBS and analyzed by flow cytometry with FlowJo V10 and GraphPad Prism6 software.", "units": {"EC50 (read off the curve)": "pM"}, "values": [{"binder": "B2", "EC50 (read off the curve)": "~600"}]}, {"target": "T4, SIRPα-V1 on 293T-SIRPα-V1 cells (human, UniProt P78324 31-504)", "T4 construct": "Stably transfected cell line", "test": "FACS titration on 293T-SIRPα-V1 cells, goat anti-hIgG-AF488 (panel SIRPα-V1)", "experimental": "as §2", "units": {"EC50 (read off the curve)": "pM"}, "values": [{"binder": "B1", "EC50 (read off the curve)": "~500"}, {"binder": "B2", "EC50 (read off the curve)": "~400"}, {"binder": "B3", "EC50 (read off the curve)": "~1000"}]}, {"target": "T1, SIRPα V1-his (ACRO, Cat #SIA-H5225)", "test": "ELISA: coated SIRPα-V1-his, antibody titrated, goat anti-hIgG Fc HRP (panel SIRPα-V1)", "experimental": "(§4) 100 μL of 1 μg/mL of SIRPα-V1-his, SIRPα-V2-his and SIRPα-V8-his (Sino Biological, Cat #30015-H08H) were coated overnight at 4° C. in Maxisorp ELISA 96-well plates. […] After washing, 100 μL of 1:5000 dilution of goat Anti-hIgG Fc HRP (Invitrogen, Cat #A18823) was added to each well and incubated for 1 h. TMB substrate was used for color development and enzyme marker readings.", "units": {"EC50 (read off the curve)": "pM"}, "values": [{"binder": "B1", "EC50 (read off the curve)": "~30"}, {"binder": "B2", "EC50 (read off the curve)": "~30"}, {"binder": "B3", "EC50 (read off the curve)": "~50"}]}, {"target": "T4, SIRPα-V1 on 293T-SIRPα-V1 cells", "test": "FACS titration on 293T-SIRPα-V1 cells, goat anti-hIgG-AF488 (panel SIRPα-V1)", "remark": "another data set of the same source", "experimental": "as §3", "units": {"EC50 (read off the curve)": "pM"}, "values": [{"binder": "B2", "EC50 (read off the curve)": "~3000"}]}, {"target": "T5, SIRPα-V8-his (Sino Biological, Cat #30015-H08H)", "T5 construct": "The His tag belongs to the same chain; not shown: exact C-terminal limit of the vendor's construct", "test": "ELISA: coated SIRPα-V8-his, antibody titrated, goat anti-hIgG Fc HRP (panel SIRPα-V8)", "experimental": "as §4", "units": {"EC50 (read off the curve)": "pM"}, "values": [{"binder": "B1", "EC50 (read off the curve)": "~20"}, {"binder": "B2", "EC50 (read off the curve)": "~20"}]}, {"target": "T4, SIRPα-V1 on 293T-SIRPα-V1 cells", "test": "competition FACS: 293T-SIRPα-V1 cells, antibody titrated against CD47-FITC, % of blocking (panel SIRPα-V1-CD47)", "experimental": "as §1", "units": {"IC50 (read off the curve)": "pM"}, "values": [{"binder": "B1", "IC50 (read off the curve)": "~200"}, {"binder": "B2", "IC50 (read off the curve)": "~100"}, {"binder": "B3", "IC50 (read off the curve)": "~300"}]}, {"target": "T6, SIRPγ on cells (Jurkat cells) (UniProt Q9P1W8 29-387)", "T6 construct": "whole, on cells", "test": "FACS titration on SIRPγ-carrying cells, goat anti-hIgG-AF488 (panel SIRPγ)", "values": [{"binder": "B1", "binding result": "binds"}, {"binder": "B2", "binding result": "binds"}]}, {"target": "T2, SIRPα-V8 on stably transfected cells", "test": "competition FACS: 293T-SIRPα-V8 cells, antibody titrated against CD47-FITC, % of blocking (panel SIRPα-V8-CD47)", "experimental": "as §1", "units": {"IC50 (read off the curve)": "pM"}, "values": [{"binder": "B1", "IC50 (read off the curve)": "~10000"}, {"binder": "B2", "IC50 (read off the curve)": "~7000"}]}, {"target": "T1, SIRPα V1-his (ACRO, Cat #SIA-H5225)", "test": "SPR (Biacore), antibody captured by anti-Fc on CM5, 50 nM SIRPα V1-his injected, 1:1 model", "experimental": "Using the Biacore analysis system, activators were prepared by mixing 400 mM EDC and 100 mM NHS and activated with a CM5 sensor chip at a flow rate of 10 μL/min for 420 s. Anti-Fc antibody at 30 μg/mL dissolved in 10 mM NaAc (pH 4.5) was injected into the channel at a flow rate of 10 μL/min and then closed with 1 M ethanolamine-HCl at a flow rate of 10 μL/min for 420 s. […] All experimental data were fitted using a 1:1 binding model.", "units": {"Kd": "pM", "koff": "s⁻¹", "kon": "M⁻¹ s⁻¹"}, "values": [{"binder": "B4", "Kd": 2340, "koff": 0.00165, "kon": 708000}, {"binder": "B5", "Kd": 4170, "koff": 0.00292, "kon": 699000}, {"binder": "B6", "Kd": 2270, "koff": 0.0016, "kon": 708000}, {"binder": "B7", "Kd": 3610, "koff": 0.00269, "kon": 744000}, {"binder": "B8", "Kd": 1980, "koff": 0.00154, "kon": 775000}, {"binder": "B9", "Kd": 25300, "koff": 0.0194, "kon": 768000}, {"binder": "B10", "Kd": 2010, "koff": 0.00151, "kon": 754000}, {"binder": "B11", "Kd": 27800, "koff": 0.0208, "kon": 747000}]}]}
